Experimental data taken from patent publication US6569833B1, “Cyclin dependent kinase binding peptides” (Cyclacel Limited, priority 1995, dated 2003).

T1: peptide 6 with aspartic acid 92 substituted by alanine
T1 chain: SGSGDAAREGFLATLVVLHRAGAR

T2: peptide 6 with residue 94 substituted by alanine
T2 chain: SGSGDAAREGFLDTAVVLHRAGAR

T3: peptide 6 (amino acids 84 to 103 of p16), biotinylated via N-terminal SGSG linker
T3 chain: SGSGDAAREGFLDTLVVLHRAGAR


How the values were obtained:
cdk4-cyclin D [1] = biological target: T4, cdk4-cyclin D (Homo sapiens, UniProt P11802); assay: pRb phosphorylation in vitro by Sf9 lysates containing cdk4 and cyclin D; assay type: biochemical; set-up: dose or concentration left out as unconfirmed; conditions: full length Rb protein
T4 construct: made in house; host or cells: Sf9 insect cells infected with baculovirus (separate crude lysates for cdk4 and cyclin D, mixed in the assay)
Procedure: Peptides were incubated at a concentration of […] in a buffer containing 50 mM Hepes pH 7.4, 10 mM MgCl2, 2.5 mM EGTA, 1 mM DTT, 10 mM β-glycerophosphate, 1 mM NaF and 1 mM Na3VO4 and […] of extract from Sf9 insect cells infected with human cdk4-expressing baculovirus lysed in 10 mM Hepes pH 7.4, 10 mM NaCl, 1 mM EDTA and 0.5 mM PMSF. The mixture was incubated for 60 minutes on ice. Human cyclin D containing Sf9 lysate ([…]) prepared as above was added together with 0.6 mg of purified recombinant full length Rb protein and 2.5 mM ^32P ATP in a final concentration of […] ATP and incubated for 10 minutes at +30° C., the reaction was terminated by addition of SDS loading buffer and loaded onto 8% SDS polyacrylamide gels. The gels were either exposed to autoradiographic film (FIG. 2A) or the levels of pRb phosphorylation were estimated by a Phosphoimager (FIG. 2B).

cdk4 [2] = biological target: T5, cdk4 (Homo sapiens, UniProt P11802); assay: Peptide precipitation of in vitro translated 35S-labelled cdk4 from reticulocyte lysate; assay type: binding; conditions: biotinylated peptide on streptavidin agarose beads, densitometry
T5 construct: host or cells: coupled in vitro transcription/translation in rabbit reticulocyte lysate
Procedure: (§1) A 20 aa peptide library with a 5 aa overlap of p16 (apart from the first 8 N-terminal residues) was synthesised adding a SGSG linker to the N-terminus to which a biotin group was coupled. The alanine substitution series of peptide 6 was synthesised in the same way. The peptides were coupled to streptavidin immobilised on agarose beads and washed 4 times in PBS before incubating for 1 hour on ice with rabbit reticulocyte lysate (Promega) containing ^35S-methionine labelled cdk4 or cdk6. The beads were washes 4 times in 1.2×PBS with 0.2% Triton X-100 before addition of SDS loading buffer and applied to 12% SDS polyacrylamide gels. The gels were exposed to an autoradiography film and the bands corresponding to cdk4 and cdk6 were analysed by densitometry.
(§2) To study the binding of peptides to cdk4 and cdk6 we expressed the proteins in a coupled in vitro reticulocyte translation system in the presence of ^35S labelled methionine. A biotin group coupled to a Ser-Gly-Ser-Gly-linker at the N-terminus of the peptides was coupled to streptavidin coated agarose beads and incubated with the cell lysates.

cdk6 = biological target: T6, cdk6 (Homo sapiens, UniProt Q00534); assay: Peptide precipitation of in vitro translated 35S-labelled cdk6 from reticulocyte lysate; assay type: binding; conditions: biotinylated peptide on streptavidin agarose beads, densitometry
T6 construct: host or cells: coupled in vitro transcription/translation in rabbit reticulocyte lysate
T6 sequence (Q00534 whole entry): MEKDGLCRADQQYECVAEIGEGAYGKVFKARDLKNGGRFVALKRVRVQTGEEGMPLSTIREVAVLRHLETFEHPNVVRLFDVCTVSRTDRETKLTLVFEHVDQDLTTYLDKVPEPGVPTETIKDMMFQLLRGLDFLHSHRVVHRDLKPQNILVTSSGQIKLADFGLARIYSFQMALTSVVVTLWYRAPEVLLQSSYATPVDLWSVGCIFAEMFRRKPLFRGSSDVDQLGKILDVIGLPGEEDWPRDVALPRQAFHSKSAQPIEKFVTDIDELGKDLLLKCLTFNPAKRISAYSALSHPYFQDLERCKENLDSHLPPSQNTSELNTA
Procedure: as §1, §2

HaCaT cells = assay: Cell cycle inhibition: S-phase entry of serum-starved cells by BrdU incorporation; assay type: cell-based, human; conditions: 10 μM peptide concentration
Procedure: Cells were synchronised in G0 by serum starvation for 72 hours before serum and 10 μM BrdU were added. […] The data presented show % inhibition of cells entering S-phase after incubation with peptide 6 coupled to Penetratin in relation to cells incubated with serum only.
A cysteine residue was added to the C-terminus of peptide 6 and used for coupling to the 16 amino acids long Penetratin peptide (amino acid sequence RQIKIWFQNRRMKWKK)(SEQ ID NO:3) of the Antennapedia homeodomain (24) (Appligen) by means of a disulzhide bond. Cells were seeded on cover slips prior to starvation for 72 hours in DMEM medium without FCS. The medium was substituted by DMM containing 10% FCS and BrdU. The coupled peptides were added at different time points after serum stimulation. The number of cells entering S-phase was determined by estimating the numbers of cells incorporating BrdU at 24 hours by fixing the cells on cover slips in acetone/methanol (1:1), incubating in 1M HCl for 30 minutes, washing 6 times in PBS and then incubating with anti-BrdU monoclonal antibody and Texas Red conjugated secondary antibody and mounted in Mowiol containing Hoescht. At least six different areas on three different cover slips were counted for each single experiment which was repeated at least two times. The values presented in FIG. 3A show one representative experiment.

cdk4-cyclin D [3] = biological target: T4, cdk4-cyclin D; assay: pRb phosphorylation in vitro by Sf9 lysates containing cdk4 and cyclin D; assay type: biochemical; conditions: for block of cdk4-cyclin D dependent pRb phosphorylation: 50 μM peptide, dilution series
cdk4 [4] = biological target: cdk4 (human, UniProt P11802 1-303); assay: cell-based or functional assay
[5] = biological target: T1, peptide 6 with aspartic acid 92 …
[6] = biological target: peptide 10 of the p16 20 aa peptide library
[7] = biological target: peptide 1 of the p16 20 aa peptide library
[8] = biological target: T2, peptide 6 with residue 94 substituted …
[9] = biological target: T3, peptide 6 (amino acids 84 to 103 of …)

| Molecule | inhibition of pRb phosphorylation (cdk4-cyclin D [1]) | relative binding to in vitro expressed cdk4 (cdk4 [2]) | relative binding to in vitro expressed cdk6 (cdk6) | also measured |
| --- | --- | --- | --- | --- |
| AREGFLDTLVVLHRAGAR (SGSGAREGFLDTLVVLHRAGAR) [peptide 6 in FIGS. 5A-C, deletion series peptide, 2 residues removed at the N-terminus of the p16 84-103 peptide] | severely reduced | severely reduced | severely reduced |  |
| EGFLDTLVVLHRAGAR [peptide 7, 16 aa peptide of the p16 deletion series] | able to exert a biological effect which is the same or analogous to that of full length p16 |  |  |  |
| FLDTLVVLHRAG [peptide 9, 12 aa peptide of the p16 deletion series] | able to exert a biological effect which is the same or analogous to that of full length p16 |  |  |  |
| peptide 21: 36aa synthetic peptide (Penetratin sequence plus 20aa p16 peptide) that carries the VV.95,96AA mutation (RQIKIWFQNRRMKWKKDAAREGFLDTLAALHRAGAR) |  |  |  | block of S-phase entry (HaCaT cells): significantly less active in vivo; block of S-phase entry (HaCaT cells; listed as pep21): only marginal effect; inhibition of cdk-cyclin D kinase activity (cdk4-cyclin D [3]; 36aa Penetratin-linked peptides, increasing concentrations (FIG. 6A)): less active |
| DAARAGFLDTLQTLLEFQAD (SGSGDAARAGFLDTLQTLLEFQAD) [p18 peptide, peptide derived from p18 corresponding to the 84-103 region of p16] | inhibit pRb phosphorylation | binds | binds |  |
| DAAPEGFLDTLVVLHRAGAR [R87P, p16 84-103 peptide with the R87P substitution] | does not hamper the function of the peptide |  |  |  |
| Ala92: peptide 6 in which aspartic acid 92 is substituted by alanine (SGSGDAAREGFLATLVVLHRAGAR) | even more efficiently than the wild type peptide 6 | more potent binding | more potent binding | block of cdk4-cyclin D dependent pRb phosphorylation (cdk4-cyclin D [3]; listed as Ala92 peptide): almost completely blocked; block of cdk4-cyclin D dependent pRb phosphorylation (cdk4-cyclin D [3]; listed as Ala-92): nearly complete |
| His-tagged p16 protein with the VV.95,96AA mutations (from UniProt P42771 1-156) |  |  |  | 50% kinase inhibitory concentration, fold increase against wild type His-tagged p16 (cdk4 [4]): 5 fold |
| Ala94: peptide 6 with the single alanine substitution at residue 94 (SGSGDAAREGFLDTAVVLHRAGAR) |  |  |  | block of cdk4-cyclin D dependent pRb phosphorylation (cdk4-cyclin D [3]): completely inactivates the function of peptide 6 |
| DAAREGFLDTLVVLHGSGAR (SGSGDAAREGFLDTLVVLHGSGAR) [mouse p16 peptide, peptide derived from mouse p16 corresponding to the 84-103 region of p16] | inhibit pRb phosphorylation | binds | binds |  |
| FLDTLVVLHRAGAR [peptide 8, 14 aa peptide of the p16 deletion series] | able to exert a biological effect which is the same or analogous to that of full length p16 |  |  |  |
| RQIKIWFQNRRMKWKKDAAREGFLDTLAALHRAGAR [peptide 21 (36 aa synthetic peptide, Penetratin-p16 peptide carrying the VV.95,96AA mutation)] |  |  |  | 50% kinase inhibitory concentration, fold increase (cdk4 [4]): ~5 fold |
| cdk4 (protein) MATSRYEPVAEIGVGAYGTVYKARDPHSGHFVALKSVRVPNGGGGGGGLPISTVREVALLRRLEAFEHPNVVRLMDVCATSRTDREIKVTLVFEHVDQDLRTYLDKAPPPGLPAETIKDLMRQFLRGLDFLHANCIVHRDLKPENILVTSGGTVKLADFGLARIYSYQMALTPVVVTLWYRAPEVLLQSTYATPVDMWSVGCIFAEMFRRKPLFCGNSEADQLGKIFDLIGLPPEDDWPRDVSLPRGAFPPRGPRPVQSVVPEMEESGAQLLLEMLTFNPHKRISAFRALQHSYLHKDEGNPE |  |  |  | phosphorylation of the full length Rb protein by Sf9 lysates containing cdk4 and cyclin D [5]: inhibits phosphorylation of the full length Rb protein even more efficiently than the wild type peptide 6; pRb phosphorylation [6]: do not affect pRb phosphorylation; pRb phosphorylation [7]: do not affect pRb phosphorylation; pRb phosphorylation (dilution series) [8]: the single substitution Ala94 completely inactivates the function of peptide 6 in this assay; level of pRb phosphorylation by Sf9 lysates containing cdk4 and cyclin D [9]: significantly reduces the level of pRb phosphorylation |
